Results reported in patent US20160271244A1.

Target: Env (gp120) of HIV-1 JRCSF.N160K (HIV-1), P20871
Assay: cell-based or functional assay

B1: CH01 (antibody, V domains shown)
VH: EVQLVESGANVVRPGGSLRLSCKASGFIFENFGFSWVRQAPGKGLQWVAGLNWNGGDTRYADSVKGRFRMSRDNSRNFVYLDMDKVGVDDTAFYYCARGTDYTIDDAGIHYQGSGTFWYFDLWGRGTLVSVSS
VL: EIVLTQSPGTLSLSPGERATLSCRASHNVHPKYFAWYQQKPGQSPRLLIYGGSTRAAGIPGKFSGSGSGTDFTLTISRVDPEDFAVYYCQQYGGSPYTFGQGTKVEI
IC50 (virus neutralization): > 50 mg/L
IC80 (virus neutralization): > 50 mg/L
